# B1: CTF: consensus C-terminal fragment of LEMD3 (SEQ ID NO: 25), expressed from pFLAG-LEMD3p.Δ21-669-V5 (protein, listed as Homo sapiens)
# chain: MAAAAASAPQQLSDEELFSQRDSLIQPHDRKKMKKVWDRAVDFLAANESRVRTETRRIGGADFLVWRWIQPSASCDKILVIPSKVWQGQAFHLDRRNSPPNSLTPCLKIRNMFDPVMEIGDQWHLAIQEAILEKCSDNDGIVHIAVDKNSREGCVYVKCLSPEYAGKAFKALHGSWFDGKLVTVKYLRLDRYHHRFPQALTSNTPLKPSNKHMNSMSHLRLRTGLTNSQGSS
# modifications: FLAG and V5 tags
# Assays:
# Format in all cases: cell-based, human
# Smad3 phosphorylation = experiment: phospho-Smad3 to total Smad3 ratio by western blot; conditions: electroporation of TGFβ dosed HFFs on tissue culture plastic
# Smad2/3 = experiment: V5-Smad2/3 PLA with recombinant LEMD3 / CTF
# Method: In vitro PLA: Protein-protein PLA was per-formed with antibody pairs listed in Table 4 as described in (42) with the following modifications: cells were plated on FN-coated glass or hydrogels (Matrigen, Brea, Calif.). All primary antibody in-cubations were performed for 16-24 hours at 4 C and cells were counter-stained with 1:40 phalloidin-488 or phalloidin-546 in 1×PBS for 30 minutes at room temperature and/or further processed for IF imaging using the procedure recommended in Sigma's PLA Resource Center. For all recombinant LEMD3 and C-terminal fragment experiments, HFFs were electroporated as above and allowed to culture for 24 hours on 10 μg/mL fibronectin coated glass or hydrogels before fixation. For LEMD3-phospho-Smad2/3, LEMD3-Smad2/3+TGFβ and for Smad2/3-Smad4 PLA assays: cells were treated 90 minutes before fixation with 50 μg/mL for LEMD3- and CTF-Smad2/3 assays, 100 μg/mL TGFβ for LEMD3-phospho-Smad2/3 experiments and 500 μg/mL TGFβ for Smad2/3-Smad4 experiments. For FLAG post-staining of PLA processed tissues, cells were blocked with unlabelled AffiniPure donkey anti-rabbit antibodies (Jackson ImmunoResearch, West Grove, Pa.) at a 1:10 dilution in 1×PBS-T at room temperature for 1 hour before further IF processing with 1:1000 rabbit anti-FLAG (#F7425, Sigma-Aldrich, Darmstadt, Germany) for 1 hour in PBS-T at room temperature. Following three washes with PBS-T for 5 minutes, each sample was stained with 1:500 goat anti-rabbit 546 in PBS-T for 1 hour at room temperature, washed again and then counter-stained as above. For V5 post-staining of PLA processed samples, cells were incubated with 1:200 647 labelled anti-V5 antibody (R&D Systems, Minneapolis, Minn.) diluted in PBS-T at room tem-perature for 1 hour before washing three times in PBS-T for 5 minutes each and then counter-stained as above. Imaging and analysis were performed as described for high-resolution ex vivo PLA signals except that no tissue autofluorescence signal was measured or needed to be subtracted and, when appro-priate, other IF signal (e.g. FLAG) were measured in parallel. For cells on Matrigen HTS plates (FIGS. 2c & 2d), the confluence of cells prevented identifying individual cell boundaries. Instead the PLA signal was quantified as the PLA volume divided by the nuclear intensity for each image. Each data point represents at least 3 unique surfaces with at least 12 cells measured per surface. For Smad2/3-Smad4 experiments, only two independent hydrogels were analyzed for the “CTF 500 μg/mL” and “Neon 500 μg/mL” groups due to loss of hydrogels during processing. Each bar in FIG. 5D represents the mean with standard error of the mean for all the cells analyzed from that condition.
# Smad2/3-Smad4 complexes = experiment: Smad2/3-Smad4 PLA; conditions: over-expression, 500 μg/mL TGFβ, 1 kPa hydrogels, p=0.0081
# Method: In vitro PLA: Protein-protein PLA was per-formed with antibody pairs listed in Table 4 as described in (42) with the following modifications: cells were plated on FN-coated glass or hydrogels (Matrigen, Brea, Calif.). All primary antibody in-cubations were performed for 16-24 hours at 4 C and cells were counter-stained with 1:40 phalloidin-488 or phalloidin-546 in 1×PBS for 30 minutes at room temperature and/or further processed for IF imaging using the procedure recommended in Sigma's PLA Resource Center. […] Imaging and analysis were performed as described for high-resolution ex vivo PLA signals except that no tissue autofluorescence signal was measured or needed to be subtracted and, when appro-priate, other IF signal (e.g. FLAG) were measured in parallel. […] Instead the PLA signal was quantified as the PLA volume divided by the nuclear intensity for each image. Each data point represents at least 3 unique surfaces with at least 12 cells measured per surface. For Smad2/3-Smad4 experiments, only two independent hydrogels were analyzed for the “CTF 500 μg/mL” and “Neon 500 μg/mL” groups due to loss of hydrogels during processing. Each bar in FIG. 5D represents the mean with standard error of the mean for all the cells analyzed from that condition.
# PPM1α = PPM1α PLA; conditions: glass
# Method: In vitro PLA: Protein-protein PLA was per-formed with antibody pairs listed in Table 4 as described in (42) with the following modifications: cells were plated on FN-coated glass or hydrogels (Matrigen, Brea, Calif.). All primary antibody in-cubations were performed for 16-24 hours at 4 C and cells were counter-stained with 1:40 phalloidin-488 or phalloidin-546 in 1×PBS for 30 minutes at room temperature and/or further processed for IF imaging using the procedure recommended in Sigma's PLA Resource Center. For all recombinant LEMD3 and C-terminal fragment experiments, HFFs were electroporated as above and allowed to culture for 24 hours on 10 μg/mL fibronectin coated glass or hydrogels before fixation. For LEMD3-phospho-Smad2/3, LEMD3-Smad2/3+TGFβ and for Smad2/3-Smad4 PLA assays: cells were treated 90 minutes before fixation with 50 μg/mL for LEMD3- and CTF-Smad2/3 assays, 100 μg/mL TGFβ for LEMD3-phospho-Smad2/3 experiments and 500 μg/mL TGFβ for Smad2/3-Smad4 experiments. […] Imaging and analysis were performed as described for high-resolution ex vivo PLA signals except that no tissue autofluorescence signal was measured or needed to be subtracted and, when appro-priate, other IF signal (e.g. FLAG) were measured in parallel. […] Instead the PLA signal was quantified as the PLA volume divided by the nuclear intensity for each image. Each data point represents at least 3 unique surfaces with at least 12 cells measured per surface. For Smad2/3-Smad4 experiments, only two independent hydrogels were analyzed for the “CTF 500 μg/mL” and “Neon 500 μg/mL” groups due to loss of hydrogels during processing. Each bar in FIG. 5D represents the mean with standard error of the mean for all the cells analyzed from that condition.
molecule,measurement,setting,value
B1,pSmad3/Smad3 ratio,Smad3 phosphorylation,decreased the pSmad3/Smad3 ratio
same,overall CTF-Smad2/3 interactions versus electroporation control fibroblasts,"Smad2/3; 1 kPa p<0.0001, 25 kPa p=0.0227",significantly more overall CTF-Smad2/3 interactions
same,"CTF-Smad2/3 interactions, cytoplasm","Smad2/3; 1 kPa relative to 25 kPa hydrogels, p<0.0001",significantly more Smad2/3 interactions
same,CTF-Smad2/3 interactions overall,"Smad2/3; 1 kPa relative to 25 kPa hydrogels, p<0.0001, FIG. 5B",significantly more Smad2/3 interactions
same,"CTF-Smad2/3 interactions, nucleus","Smad2/3; 1 kPa relative to 25 kPa hydrogels, p=0.0082",significantly more Smad2/3 interactions
same,fraction of CTF-Smad2/3 interactions in the nucleus,"Smad2/3; depending on stiffness, FIG. 5B",40-55%
same,TGFβ-driven increase in Smad2/3-Smad4 complexes,Smad2/3-Smad4 complexes,significantly abrogated
same,"PPM1α interactions, total","PPM1α; vs Neon Only control, p<0.0001",bound PPM1α
same,"PPM1α interactions, cytoplasm","PPM1α; vs control, p=0.0081",bound PPM1α significantly above background
same,"PPM1α interactions, nucleus","PPM1α; vs control, p=0.2569",only endogenous LEMD3 was found to significantly bind PPM1α in the nucleus

# Source: patent publication US11541101B1, “LEMD3 antagonizes TGF-beta-driven Smad2/3 transcription in a stiffness-dependent fashion in both the nucleus and cytosol” (University of Virginia Patent Foundation, priority 2018, dated 2023)
